Series [1] addresses MmsR, LysR-type transcriptional activator protein of Pseudomonas denitrificans, tagged with six histidine residues at the C-terminus (Pseudomonas denitrificans ATCC 13867). In words: native gel or EMSA + SEC; native PAGE and/or gel filtration of purified His-tagged MmsR at the high concentration of 550 nM; monomer to dimer.
Series [2] concerns the target T1, MmsR (Pseudomonas denitrificans (nom. rej.), UniProt A0A9X7MYS1).
T1 construct: gene F1C79_09590; cell rows: native chromosomal MmsR; gene divergent from mmsA
T1 sequence (A0A9X7MYS1 1-298): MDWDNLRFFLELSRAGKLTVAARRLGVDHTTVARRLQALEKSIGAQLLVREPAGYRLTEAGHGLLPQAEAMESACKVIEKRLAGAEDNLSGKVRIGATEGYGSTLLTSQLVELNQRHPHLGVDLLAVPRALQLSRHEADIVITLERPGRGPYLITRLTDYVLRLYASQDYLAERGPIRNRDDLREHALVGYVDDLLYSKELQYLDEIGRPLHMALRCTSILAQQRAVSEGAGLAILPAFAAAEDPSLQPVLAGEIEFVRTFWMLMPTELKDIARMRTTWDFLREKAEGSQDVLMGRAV
The series can be described thus: EMSA with mmsA promoter DNA, purified MmsR with and without inducer. The conditions noted are these: 25 mM 3-HP; 40 nM DNA probe; pH 7.4, 750 mM KCl; effector of DNA binding (inducer).

In series [3] the target is T2, MmsR (LysR-type transcriptional activator, C4-LysR) (Pseudomonas denitrificans ATCC 13867, UniProt A0A9X7MYS1 1-298).
T2 sequence: T1 sequence (A0A9X7MYS1 1-298)
The series can be described thus: EMSA; no 3-HP; stronger shift than F1M2; 50 mM Tris pH 7.4, 750 mM KCl (1X as printed), 0.5 mM DTT, 0.5 mM EDTA, room temperature; EMSA 40 nM DNA, 0-48.5 nM MmsR, 30 min; footprinting 230 nM DNA, 0-1.2 uM MmsR. As to conditions: protein: recombinant; tags: C-terminal His6 (pET30b+); chain copies: 2; label: none (SYBR Green stain); blunt.

Series [4] addresses T2, MmsR (LysR-type transcriptional …). In words: EMSA; no 3-HP; 50 mM Tris pH 7.4, 750 mM KCl (1X as printed), 0.5 mM DTT, 0.5 mM EDTA, room temperature; EMSA 40 nM DNA, 0-48.5 nM MmsR, 30 min; footprinting 230 nM DNA, 0-1.2 uM MmsR. As to conditions: protein: recombinant; tags: C-terminal His6 (pET30b+); chain copies: 2; label: none (SYBR Green stain); blunt.
For series [5] the target is unchanged. In words: DNase I footprinting; no 3-HP; O1 more protected than O2; 50 mM Tris pH 7.4, 750 mM KCl (1X as printed), 0.5 mM DTT, 0.5 mM EDTA, room temperature; EMSA 40 nM DNA, 0-48.5 nM MmsR, 30 min; footprinting 230 nM DNA, 0-1.2 uM MmsR. As to conditions: protein: recombinant; tags: C-terminal His6 (pET30b+); chain copies: 2; blunt.

For the molecule “MmsR, LysR-type transcriptional activator protein of Pseudomonas denitrificans, tagged with six histidine residues at the C-terminus (natural protein)”, the stoichiometry N in series [1] stood at 2.
In the case of `O=C(O)CCO` [compound 1, 3-hydroxypropionic acid], the “EMSA with mmsA promoter DNA, purified MmsR with and without inducer” value in series [2] was 3-HP promotes the binding affinity between MmsR and the PmmsA promoter.

B1: F12M (O1 intact, O2 mutant) (dsDNA)
DNA 1: GTCAGCCTCAGCGCACCTCGAATGTGCAAAAACGCAGACCATACTTGCACATCACCGCATTGAGTACATCAATCCTTGCTTGTTAGGATCGCGCCCAGGCACAAAAAAGCCACAGGCTGGGAGAATCCCG
DNA 2: CGGGATTCTCCCAGCCTGTGGCTTTTTTGTGCCTGGGCGCGATCCTAACAAGCAAGGATTGATGTACTCAATGCGGTGATGTGCAAGTATGGTCTGCGTTTTTGCACATTCGAGGTGCGCTGAGGCTGAC
With B1, the binding result in series [3] is listed as “binds”.

B2: F12 (O1 and O2 intact) (dsDNA)
DNA 1: GTCAGCCTCAGCGCACCTCGAATGTGCAAAAACGCAGACCATACTTGCACATCACCGCATTGAGTACATCAAAAATGCACTGTTAGGATCGATCCAGACAACAAAAAAGCCACAGGCTGGGAGAATCCCG
DNA 2: CGGGATTCTCCCAGCCTGTGGCTTTTTTGTTGTCTGGATCGATCCTAACAGTGCATTTTTGATGTACTCAATGCGGTGATGTGCAAGTATGGTCTGCGTTTTTGCACATTCGAGGTGCGCTGAGGCTGAC
Turning to B2, in series [4], the binding result is reported as “binds”.

B3: 169 bp footprinting fragment (dsDNA)
DNA 1: CCGCAGGTTGTCCCAGTCCATGTCAGCCTCAGCGCACCTCGAATGTGCAAAAACGCAGACCATACTTGCACATCACCGCATTGAGTACATCAAAAATGCACTGTTAGGATCGATCCAGACAACAAAAAAGCCACAGGCTGGGAGAATCCCGATGACCGCAACTGCCCCG
DNA 2: CGGGGCAGTTGCGGTCATCGGGATTCTCCCAGCCTGTGGCTTTTTTGTTGTCTGGATCGATCCTAACAGTGCATTTTTGATGTACTCAATGCGGTGATGTGCAAGTATGGTCTGCGTTTTTGCACATTCGAGGTGCGCTGAGGCTGACATGGACTGGGACAACCTGCGG
As to B3, the binding result in series [5] was “binds”.

The record behind these values is PMC6441110, “A novel 3-hydroxypropionic acid-inducible promoter regulated by the LysR-type transcriptional activator protein MmsR of Pseudomonas denitrificans” (Scientific Reports, 2019).
